Broadly, the stoichiometry N is a count of units in the complex or per binding partner. Broadly, the Kd is the equilibrium constant for the complex coming apart. Low readings indicate higher affinity, high ones lower affinity. In general, koff refers to the rate constant with which the complex falls apart. For orientation: kon means a measure of how fast the partners come together. Low readings indicate slow association, high ones fast association.

First the molecules themselves.
B1: Spy (WT Spy), ATP-independent periplasmic chaperone (natural protein, Escherichia coli, UniProt P77754 24-161, looked up)
chain: ADTTTAAPADAKPMMHHKGKFGPHQDMMFKDLNLTDAQKQQIREIMKGQRDQMKRPPLEERRAMHDIIASDTFDKVKAEAQIAKMEEQRKANMLAHMETQNKIYNILTPEQKKQFNANFEKRLTERPAAKGKMPATAE
B2: Im7-L18A L19A L37A (mimic of unfolded Im7, Im7U) (natural protein, UniProt Q03708 1-87, looked up)
chain: MELKNSISDYTEAEFVQAAKEIEKENVAATDDVLDVALEHFVKITEHPDGTDLIYYPSDNRDDSPEGIVKEIKEWRAANGKPGFKQG
B3: Im7-L53A I54A (mimic of the Im7 folding intermediate, Im7I) (natural protein, UniProt Q03708 1-87, looked up)
chain: MELKNSISDYTEAEFVQLLKEIEKENVAATDDVLDVLLEHFVKITEHPDGTDAAYYPSDNRDDSPEGIVKEIKEWRAANGKPGFKQG
B4: Immunity protein 7, wild type (Im7-WT) (natural protein, UniProt Q03708 1-87, looked up)
chain: MELKNSISDYTEAEFVQLLKEIEKENVAATDDVLDVLLEHFVKITEHPDGTDLIYYPSDNRDDSPEGIVKEIKEWRAANGKPGFKQG

The target in test [1] is B4. Briefly: ITC. For orientation: Isothermal titration calorimetry measures the heat released or taken up as one component is titrated into another.
Test [2] concerns the target B2. The experiment in a line: ITC.
The target in test [3] is B3. The experiment in a line: ITC.
In test [4] the target is B1. Briefly: ITC.
Test [5] addresses B1. Briefly: stopped-flow fluorescence.

With B1, the “stoichiometry N” value in test [1], in test [2] and in test [3] was 1 Spy dimer per Im7 each time.

In the case of B2, in test [4], the affinity, expressed as Kd, was 10.4 µM. In test [5], this molecule registered a dissociation rate constant (koff) of 210 s⁻¹ and a kon of 1.3e+07 M⁻¹ s⁻¹.

In test [4], B3 registered a Kd of 3.5 µM.

B4 showed a Kd in test [4] of 20.5 µM.
